Experimental data published in article PMC8962251 (2022).

Biological target: SARS-CoV (2002) S1S2-His trimer (SARS-CoV (2002))
Test: SPR

HDFWWEYDKKNDTWTRRRR (designed binder) [CVRBDL-3_3]
Kd: ~41 mM
